One molecule from PMC5356539, “Neuropilin-1 is a receptor for extracellular miRNA and AGO2/miRNA complexes and mediates the internalization of miRNAs that modulate cell function” (Oncotarget, 2016) can be followed below.

For the experiment, the target named is T1, Human recombinant AGO2, full-length protein (human, UniProt Q9UKV8 1-859).
T1 construct: human AGO2 (argonaute 2), full-length recombinant protein; also called full-length AGO2; source: bought: Biorbyt
Put plainly: ELISA; plate coated with NRP1-Fc; full-length AGO2 pre-mixed or not with an equimolar amount of miR-20a (1 h, 37°C, Ca/Mg-HBSS) and serially diluted; bound AGO2 detected with anti-pan AGO2 antibody, anti-mouse IgG-HRP and TMB (OD450 minus non-specific binding). Conditions: both partners purified.

T1 sequence (Q9UKV8 whole entry): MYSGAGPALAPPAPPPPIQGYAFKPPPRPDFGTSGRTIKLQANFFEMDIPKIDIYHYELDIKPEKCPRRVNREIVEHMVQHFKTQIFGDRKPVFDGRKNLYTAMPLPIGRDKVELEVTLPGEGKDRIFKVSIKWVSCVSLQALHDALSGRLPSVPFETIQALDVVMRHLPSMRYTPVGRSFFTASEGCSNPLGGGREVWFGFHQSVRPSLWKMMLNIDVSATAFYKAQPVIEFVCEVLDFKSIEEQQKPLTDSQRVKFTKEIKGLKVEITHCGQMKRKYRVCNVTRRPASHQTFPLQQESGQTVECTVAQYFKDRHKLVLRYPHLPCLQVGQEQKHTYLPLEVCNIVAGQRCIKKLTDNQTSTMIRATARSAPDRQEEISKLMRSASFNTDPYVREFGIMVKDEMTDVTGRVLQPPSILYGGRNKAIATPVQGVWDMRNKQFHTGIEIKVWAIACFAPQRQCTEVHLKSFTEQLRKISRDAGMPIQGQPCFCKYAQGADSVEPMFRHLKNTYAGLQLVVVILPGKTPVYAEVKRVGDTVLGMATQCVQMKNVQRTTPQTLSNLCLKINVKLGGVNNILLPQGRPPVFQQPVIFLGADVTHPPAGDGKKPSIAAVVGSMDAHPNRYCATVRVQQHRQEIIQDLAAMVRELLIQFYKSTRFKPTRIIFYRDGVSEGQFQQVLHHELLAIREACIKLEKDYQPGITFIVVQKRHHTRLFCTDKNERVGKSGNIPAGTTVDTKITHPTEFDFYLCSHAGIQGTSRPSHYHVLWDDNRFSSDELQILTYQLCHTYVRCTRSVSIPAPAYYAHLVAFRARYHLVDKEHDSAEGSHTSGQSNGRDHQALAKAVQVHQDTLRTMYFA

B1: Recombinant full-length rat neuropilin-1/Fc chimera (Fc fusion, UniProt Q9QWJ9 22-855, looked up)
chain: FRSDKCGGTIKIENPGYLTSPGYPHSYHPSEKCEWLIQAPEPYQRIMINFNPHFDLEDRDCKYDYVEVIDGENEGGRLWGKFCGKIAPSPVVSSGPFLFIKFVSDYETHGAGFSIRYEIFKRGPECSQNYTAPTGVIKSPGFPEKYPNSLECTYIIFAPKMSEIILEFESFDLEQDSNPPGGVFCRYDRLEIWDGFPEVGPHIGRYCGQKTPGRIRSSSGILSMVFYTDSAIAKEGFSANYSVLQSSISEDFKCMEALGMESGEIHSDQITASSQYGTNWSVERSRLNYPENGWTPGEDSYREWIQVDLGLLRFVTAVGTQGAISKETKKKYYVKTYRVDISSNGEDWITLKEGNKAIIFQGNTNPTDVVFGVFPKPLITRFVRIKPASWETGISMRFEVYGCKITDYPCSGMLGMVSGLISDSQITASNQGDRNWMPENIRLVTSRTGWALPPSPHPYINEWLQVDLGDEKIVRGVIIQGGKHRENKVFMRKFKIAYSNNGSDWKMIMDDSKRKAKSFEGNNNYDTPELRAFTPLSTRFIRIYPERATHSGLGLRMELLGCEVEVPTAGPTTPNGNPVDECDDDQANCHSGTGDDFQLTGGTTVLATEKPTIIDSTIQSEFPTYGFNCEFGWGSHKTFCHWEHDSHAQLRWRVLTSKTGPIQDHTGDGNFIYSQADENQKGKVARLVSPVVYSQSSAHCMTFWYHMSGSHVGTLRVKLHYQKPEEYDQLVWMVVGHQGDHWKEGRVLLHKSLKLYQVIFEGEIGKGNLGGIAVDDISINNHIPQEDCAKPTDLDKKNTEIKIDETGSTPGYEEGKGDKNISRKPGNVLKTLDP
notes: rat neuropilin-1, unmodified extracellular domain; transmembrane and cytosolic domains replaced with a C-terminal portion of human IgG-Fc; also called NRP1-Fc; NRP1; source: bought: R&D Systems; not shown: Fc (human IgG), C-terminal, kept
On to B1, for which the binding result was “binds”.
